Molecular target: His-tagged CP47 (PSII core antenna protein CP47) (Synechocystis sp. PCC 6803, UniProt P05429 1-507)
Assay: AUC

His-tagged CP47 (PSII core antenna protein CP47), sequence (P05429 whole entry): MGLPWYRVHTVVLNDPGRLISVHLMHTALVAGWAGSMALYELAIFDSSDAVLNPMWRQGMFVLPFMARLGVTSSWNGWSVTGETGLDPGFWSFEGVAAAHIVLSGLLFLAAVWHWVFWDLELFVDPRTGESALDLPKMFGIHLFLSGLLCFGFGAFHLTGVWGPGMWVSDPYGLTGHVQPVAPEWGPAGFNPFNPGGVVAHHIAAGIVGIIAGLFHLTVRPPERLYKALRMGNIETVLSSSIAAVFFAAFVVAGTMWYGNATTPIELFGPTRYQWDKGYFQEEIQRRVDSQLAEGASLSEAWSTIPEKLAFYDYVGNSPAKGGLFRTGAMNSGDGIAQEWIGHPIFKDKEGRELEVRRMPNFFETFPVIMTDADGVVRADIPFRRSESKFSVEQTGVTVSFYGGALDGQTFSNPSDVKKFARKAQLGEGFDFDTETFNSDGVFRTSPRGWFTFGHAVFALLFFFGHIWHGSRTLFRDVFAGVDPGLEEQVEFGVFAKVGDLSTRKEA

stoichiometry N: ~1
B1: CP43 (PSII core antenna protein) (natural protein)
chain: not shown

Reference: article doi:10.1101/660712 (bioRxiv, 2019)
